{"source": "the DeepSol protein solubility set"}
{"assay": "soluble on expression in E. coli; label from the status in PepcDB or PDB records"}
{"sequence": "MGSDKIHHHHHHMFKESPIIRRVSRQIMVGNVPVGGDAPITVQSMTNTLTTDVAATVAQIKALEAVGADIVRVSVPTMDAAEAFREIKKQVNVPLVADIHFDYRIALKVAEYGVDCLRINPGNIGNENRIRSVVECARDNNIPIRIGVNGGSLEKDIQEKYTEPTPEALLESAMRHVDILDRLNFNEFKVSVKASDVFLAVESYKLLAKQIDNPLHLGITEAGGLRSGSVKSSVGLGLLLAQGIGDTIRISLAADPIEEIKVGFDILKSLKLRSRGINLIACPSCSRQEFDVVSTVNALEQRIEDIMTPMDVSIIGCIVNGPGEAMVSDLGLTGSSKKSGYYLDGIRQKERFDNTDLVDQLEQRIRAKARSMSERLDEKNKIDILTKD", "soluble on expression in E. coli": "not soluble"}
{"sequence": "MGSDKIHHHHHHMDILRKVAEIHGTPTYVYFEETLRKRSRLVKEVFEGVNLLPTFAVKANNNPVLLKILREEGFGMDVVTKGELLAAKLAGVPSHTVVWNGNGKSRDQMEHFLREDVRIVNVDSFEEMEIWRELNPEGVEYFIRVNPEVDAKTHPHISTGLKKHKFGIPLEDLDSFMERFRSMNIRGLHVHIGSQITRVEPFVEAFSKVVRASERYGFEEINIGGGWGINYSGEELDLSSYREKVVPDLKRFKRVIVEIGRYIVAPSGYLLLRVVLVKRRHNKAFVVVDGGMNVLIRPALYSAYHRIFVLGKQGKEMRADVVGPLCESGDVIAYDRELPEVEPGDIIAVENAGAYGYTMSNNYNSTTRPAEVLVRENGRISLIRRRETEMDIFKDVVM", "soluble on expression in E. coli": "not soluble"}
{"sequence": "MAQINFEGLRELHDCVNYLLHHCPKTRESLSQQGQEKWTEQVSEASLRMLDICNVSKDVMTLVKHSLQDLQLTLRGNESSDVNEKIAAYNRYKNKLKKETLKCLNCLKNMKGNEGRVAMPIEQNLLFVTEVLKEVRRVVVTMVESLFSLGCIPWLEKRSSKGSLSSIFSIRSSYLLDDEWDETAVQSATTRLEAAEITVVELEIELESIFRRLIQTRVSLLNILTN", "soluble on expression in E. coli": "soluble"}
{"sequence": "MGSDKIHHHHHHMNVHKIVWQEGMLLRPQHLQHNDRYYDNQMKARTQLLGSYNWGFLALELDRQFLNMGKLVISQASGVLPDGSLFELGGNTEPLALDVPPNTSNVPIYLALPLVTGNHIEARRPEQAEVLARYTAYDLEVADSNAGEDSMVQVSCARPDFRLLLGEQQSDQAYVKLKVAVVLDSTPDGVISLDPDFVPSYLHAHASAYLLSCLKEVISMLGHRGDTIAERIRSNGKVGGAEVGDFMMLQLINRTELLLRHYLGLEQVHPEQLYRVLLTMLGDLATFGSESKRPRLDSRYQHSDQGASFRRLMEAIRQVLSMVLEQHAIELPLQARQYGILVSPLHDHKLLGSASFVLAASANCESEELRQRLPAHLKVGAVEHIRQLVNLHLPGIRVKPLPVAPRQIPFHSNKTYFILEPNAEDMAQLERSGGFAFHVSGEFSELELKFWAIRN", "soluble on expression in E. coli": "not soluble"}
{"sequence": "MTDLEVSVDDLVKLLSPTMSLIVRRKTMEVVTQLGTPLDGSAGKYFQAQDFALGKAICQLCEATSSDRTETLAALTNFTSGSIEAADFVLDKSKCVEIAYTAVVTNALYSSVASRLLVNVSRHFPDRVDHKLKARNANYIGQLLNEIKKSVETGDEDRAKFVGFTVVNLSVLPPIRQNIVQGGENESSPPSTTMKLLPIVCELLTTAETTEIRECAADVLRNLAFDDSLHGSLLDTSDEYLCSILAPLMDVNDNLDEEEIAKLPVRLQYYEKERDSSDIVRQKLIEALFQLCATKHGREVLRAKGVYPAMRELDKGTETAEDKHKKTLLSSQQEHTLHALIGILIRYESEMDVDPELSSIRELGTSEVTEITKTS", "soluble on expression in E. coli": "not soluble"}
{"sequence": "MAHHHHHHMRVTHHNNNNERSADRPPPSPHPHSQYYRQRYSLFRKTHRHAALTCSTRSSSSSPAVQQLRVIHFFHSLRHATATQYSHTCSMRCILFSSLYLWRHRKVLQPAASWCWKKYGAATVRVSVWLYSRFNSSSTNGLAAAIPAGSFSSSPQNRGRLTGPSNGVTPCPMRSCAPPSHVPLRSRRRTQHPHAIAGKIGPST", "soluble on expression in E. coli": "soluble"}
{"sequence": "MAPLETIYDESLNKSADSIDDKKWSKLFPRIVSDPDRSSNFMTRAIYVAFSAVLRNRNILGQEYFTKNYITEKLKCMTLCFRNPRSNQIAQLLRNAGDATKDGFLKEVSLVITNNEGDLEAIEVFSMKFIYFENGGVVARLSTDKNGQEDPHFAKLAQLVYEGGDSVRDQMVTIVRSVQFLCTKVLEPLPEEFTANFRLEYTNDAPSNFRIDGFEDSSTFYTLPDDIQSATIGHLRPGCHAANMECWSMLMSDSYEAELTLKRHLDKVSDRHGFNPVNVLYKSFNSEDSDTSLSQATTESVNDQGGNETSPVDDITESLEKAQMSPIQTRPTTRRGADGSKTRSSPYSRSCK", "soluble on expression in E. coli": "not soluble"}
{"sequence": "MKGLIIKQPYANWIVEGKKVWEIRKTPTKIRGRVIIISEKKAVGSVEIVDVLGPFTPEELANHENKHLASYDFLKRYANGKKLYAWVLANPEKYDPPIEVKIPNGAQIWVNLKGFVRR", "soluble on expression in E. coli": "soluble"}
{"sequence": "MPQITLSAEVQPEQMGQRLDQTLAELFPEYSRSRLKTWIEADLVKLNDRITNIPREKVLGGERIEIIVEVEDETRFEAENIPLNIVYEDDDIIVINKPKDLVVHPGAGNPNGTVLNALLYHYPPIVEVPRAGIVHRLDKDTTGLMVVAKTIPAQTKLVRDLQKRKITREYEAVASGIMTKGGTVDQPMARHATKRTLMAVHPMGKPAVTHYRIMENYRNYTRLRLRLETGRTHQIRVHMAHIAHPLLGDQTYGGRPRPPKNASEDFMEVLRNFKRQALHAVMLRLAHPITGEMMEWYAPLPDDFVELLNALKADYLEHQDELDY", "soluble on expression in E. coli": "soluble"}
{"sequence": "MTHHHHHHAMGPAAGQAYDAGNLDVASSPVKPTLSITKKTLTAAEAPNAKVTMELSVEGAADKYAATGLHIQFDPKLKLIPDEDGALATAGRAARLLELKKAEADTDNSFFTATGSSTNNGKDGVLWSFVLQVPADAQPGDKYDVQVAYQSRTTNEDLFTNVKKDEEGLLMQAWTFTQGIEQGYIQVESTTSLE", "soluble on expression in E. coli": "soluble"}
{"sequence": "MSLAVVRTINGDVSPDTLGVVNAHDHLIRVGAGEVYIDPDHLLDDVDKAAQEATYFVEASKSWAAGGTIIDMCPASSGRGVLKTLQVVEKVPGLQVVQATGFHQQKVYLEWRQSWVNQYTVTQIADLLIADIVEGIDRFDYMGPIVERTNVKAGVIKWATAYGKITEWEKKSGQAVAIASKETGCPINTHVTAGTCGPEQARFLVDQGVDPAKIAIGHMQRNWDPWVHEQICKLGCYVELDGTNRIKYVPDNTRVNLVKTLGEKGYGKQILLGTDSGKASYQKVYGSVSGIDYDPAVFCPRLVEDEGVDRDYVNDLLINNAATFFGFEPLAEGHHHHHH", "soluble on expression in E. coli": "not soluble"}
{"sequence": "GSAPAKEPSVNTALVPQLSTISRALTPSPVMVLENIEPEIVYAGYDSSKPDTAENLLSTLNRLAGKQMIQVVKWAKVLPGFKNLPLEDQITLIQYSWMSLSSFALSWRSYKHTNSQFLYFAPDLVFNEEKMHQSAMYELCQGMHQISLQFVRLQLTFEEYTIMKVLLLLSTIPKDGLKSQAAFEEMRTNYIKELRKMVTKCPNNSGQSWQRFYQLTKLLDSMHDLVSDLLEFCFYTFRESHALKVEFPAMLVEIISDQLPKVESGNAKPLYFHRK", "soluble on expression in E. coli": "soluble"}
{"sequence": "MGSDKIHHHHHHMRLYTRTGDKGKTSVIGGRLAKDDTRVVAYGTTDELNSFVGLAITQLDENTFADIRGELFKIQHELFDCGGDLAMLKVKEDRPYKAKQEIVDFLEQRIDAYIKEAPELERFILPGGSEAAASLHVCRTIARRAERYVVRLQQEGEINPIVLKYLNRLSDYFFAVARVVNSRLQVPDVEYERSAIVFREGKRKEDKK", "soluble on expression in E. coli": "not soluble"}
{"sequence": "MGHHHHHHSHMAQKPGTMAQMRNGTSGGDKRQYETEVIILNQCRKLNGQIFIQRDYSKGLDVQFEAEYPARLTEKVPRDVWENTIVRINRIFADAEAITPQTIFETVLGCFTCYASYAITKSTYRRKLDELQEFLNRENREIYHHVGFHIRNPMERGLRVLEISLLSRQGETPRDDVDSPGGAIRTI", "soluble on expression in E. coli": "not soluble"}
{"sequence": "AHHHHHHGSYDELFKKIKEKAKFVDEKLLSLIPEKEPKILYEAARHYPLAGGKRVRPFVVLTATEAVGGEWEKAIYPAVAIELIHNYSLVHDDIMDMDETRRGRPTVHKVWGINMAILAGDLLFSKAFEAISRAEIPPEKKARVLETVVKASNELCEGQAMDLEFEKRDTVTIEEYMRMISGKTGALFDASAKVGGIVGTDNEEYINALSTWGRNVGIAFQIWDDVLDLIADEEKLGKPVGSDIRKGKKTLIVAHFFENADEKDKQKFLKVFGKYAGDVKGEGIIEEDIKAEVMEAIDLLKKYGSIDYAANIAREMVKKANEALKVLPESEARKDLELLARFIVEREY", "soluble on expression in E. coli": "soluble"}
